From patent publication US9663815B2, “Cytosolically-active peroxidases as reporters for microscopy” (Massachusetts Institute of Technology, priority 2011, dated 2017)
Changes are numbered by the printed parent chain. Names may count otherwise. “Also recorded” adds a separate entry of the source.

Assays:
[1] = Guaiacol activity assay (Michaelis-Menten kinetics); type: biochemical; settings: guaiacol as substrate, purified enzyme
Method: Data points represent the mean±standard deviation of 2-3 independent measurements. Initial rates are shown as a function of guaiacol concentration. H2O2 concentration was 90 μM, and enzyme concentration was 20 nM in all trials. Oxidation to tetraguaiacol was monitored by absorbance at 470 nm (ε470=22×10^3 M^−1 cm^−1)^2.
High activity toward guaiacol generally correlated well with robust polymerization of DAB in vitro. Guaiacol assays were performed on a Nanodrop 2000c UV-vis spectrophotometer (Thermo Scientific) using its cuvette reader. HRP (Sigma) was prepared as a 10 μM stock in PBS, flash frozen and stored at −80° C., and thawed immediately before use. Guaiacol peroxidase activity was measured according to the protocol of Lad et. al.^35 Oxidation to tetraguaiacol was monitored by absorbance at 470 nm (ε470=22×10^3 M^−1 cm^−1). Kcat and KM were calculated by nonlinear regression fitting to the Michaelis-Menten equation using OriginPro (OriginLab Corporation). All values are reported as the mean±standard deviation for 2-3 independent Michaelis-Menten fittings, with each fitting using at least 5 values of substrate concentration ranging between 0.25 and 30 mM.
In order to improve the performance of mAPX in mammalian cells, monomeric APX was engineered with improved activity toward DAB in the hope that faster kinetics could compensate for diminished heme binding. The substrate binding site of APX was compared to that of HRP, which has faster kinetics and broader aromatic substrate tolerance (Henriksen, et. al., Journal of Biological Chemistry 274, 35005-35011 (1999)). In order to make APX more HRP-like, seven mutants of APX were designed that incorporated mostly aromatic residues into the active site (FIG. 5a). A colorimetric assay was employed using guaiacol, a prototypical aromatic peroxidase substrate, to determine Michaelis-Menten parameters (Kumar, et. al., Journal of Cell Science 108, 3725-3734 (1995); Henriksen, et. al., Journal of Biological Chemistry 274, 35005-35011 (1999)) (FIG. 5b and FIG. 10). […]

[2] = Gel filtration chromatography, oligomerization state; type: physicochemical
Method: APX, fluorescent protein, or miniSOG preparations were diluted to the desired concentrations using chilled (4° C.) PBS and then allowed to incubate at room temperature for 30 min to overnight. Samples (100 μL) were run on a Waters HPLC system over a Superdex 75 10/300 column (GE Healthcare) that had been pre-equilibrated in PBS, pH 7.4. Samples were run isocratically in PBS at a flow rate of 0.5 mL/min. Elution of APX was monitored at 280 nm and 405 nm (heme absorbance). Empower software (Waters) was used for analysis of elution profiles. Apparent MWs were determined against low molecular weight standards (GE). […] The apparent MW of the monomer for wt APX was assumed to be equal to the apparent MW of mAPX at 0.25 μM.
To investigate whether this localization is an artifact of APEX dimerization at high concentrations, the experiment was repeated using a tandem dimer of APX^W41F (two APX^W41F proteins linked with a short amino acid chain, denoted tdAPX) as well as miniSOG in place of APEX. Additionally, gel filtration chromatography (GFC) was used to assess the relative abundance of oligomers that formed at increasing tdAPX concentrations in vitro (5 μM, 20 μM, and 47 μM). Three different linker lengths (18, 23, and 28 amino acids) were tested. His6-tagged proteins were expressed and purified from E. coli. All three variants gave a major peak with an apparent molecular weight (MW) of ˜56 kDa, as expected for tdAPX. The apparent MW of the major peak remained constant as a function of concentration for all three constructs. […] Therefore, the 28 amino acid linker variant was selected as the optimized tandem dimer to be used in EM experiments.

HEK293T cells = assay: Amplex UltraRed labeling (resorufin fluorescence) of cells expressing peroxidase; type: cell-based
Method: The expression and activity of wild-type (wt) APX was tested using immunostaining and Amplex UltraRed, a fluorogenic peroxidase substrate, in three cellular compartments: cytosol, mitochondrial matrix, and endoplasmic reticulum (ER). APX was differentially expressed in each compartment using at least the constructs described in Table 3. For comparison, HRP was tested in the same locations. Activity was monitored through visualization of resorufin, the fluorescent product of Amplex UltraRed oxidation by HRP or APX (scheme in FIG. 7). […] When live cells were imaged immediately after Amplex UltraRed labeling, resorufin fluorescence was seen throughout the entire cell. After fixation, however, the majority of the resorufin diffused out of the cells, and resorufin fluorescence remained only in the compartment in which APX was expressed. (Note that Amplex UltraRed, a proprietary derivative of Amplex Red, was used rather than Amplex Red in this example).
Further, Amplex UltraRed labeling and immunostaining of wtAPX, APX^W41F, mAPX, and APEX was performed on transfected HEK293T cells. Amplex UltraRed labeling was performed for 6 minutes. All APX variants were expressed with a C-terminal nuclear export signal (NES, see Table 3). […]

B1: wt APX: pea cytosolic ascorbate peroxidase (Pisum sativum), wild type, about 28 kD, dimeric (protein, listed as Pisum sativum)
chain: MGKSYPTVSPDYQKAIEKAKRKLRGFIAEKKCAPLILRLAWHSAGTFDSKTKTGGPFGTIKHQAELAHGANNGLDIAVRLLEPIKEQFPIVSYADFYQLAGVVAVEITGGPEVPFHPGREDKPEPPPEGRLPDATKGSDHLRDVFGKAMGLSDQDIVALSGGHTIGAAHKERSGFEGPWTSNPLIFDNSYFTELLTGEKDGLLQLPSDKALLTDSVFRPLVEKYAADEDVFFADYAEAHLKLSELGFAEA
With B1 the “activity in vitro (guaiacol)” value [1] was “equally active”, the oligomerization state ([2]; PBS pH 7.4) was “predominantly dimeric at 0.25 μM; also recorded: runs as a dimer” and the “peroxidase activity toward Amplex UltraRed (resorufin)” value (HEK293T cells; expressed in cytosol, mitochondrial matrix and endoplasmic reticulum (ER)) was “active in all contexts”.

B2: mAPX: double mutant K14D/E112K of pea APX (SEQ ID NO:1), monomeric (protein, listed as Pisum sativum)
chain: B1 chain with K14D, E112K
For B2, the “activity in vitro (guaiacol)” value [1] was “equally active”, the oligomerization state ([2]; PBS pH 7.4) was “comparable to EYFP and much more monomeric than both wt APX and mEos2” and the oligomerization state ([2]; PBS pH 7.4, listed as APX K14D/E112K) was “most monomericity”. For the same molecule, the “activity toward Amplex UltraRed” value (HEK293T cells; cytosol (NES), HEK293T, labeling 6 minutes) was “less active than wt APX”.
